Test results taken from patent US20230279152A1 (published 2023).
Changes are numbered by the printed parent chain.

B1: 32G4-huIgG1-V9 (antibody, V domains shown)
VH: EVQLVQSGSELKKPGASVKVSCKASGYSSTGYNINWVRQAPGQGLEWIGNINPYYGGITYNQGFTGRFVLSVDKSSSTAYLQISSLKAEDTAVYYCARDYYGNSFAYWGQGTLVTVSS
VL: DIVMTQSPDSLAVSLGERATINCKSSQSLLNSGNQKNYLTWYQQKPGQPPKLLIFWASTRESGVPDRFSGSGSGTDFTLTISSLQAEDVAVYYCQNNYYFPYTFGQGTKLEIKR
notes: Humanized full IgG1 antibody; also called humanized 32G4 variant V9; 32G4-V9
B2: 31A6 mouse chimeric antibody (murine VH/VL on human IgG1 constant regions) (antibody, V domains shown)
VH: QTYLQQSGAELVRSGASVKMSCKASGYTFASYNIHWVKQTPGQGLEWIGYIYPGKDGSHYNQKFRDKATLTADTSSSTAYMQISSLTSEDSAVYFCARGGYYGNSFDYWGQGTLVTVSA
VL: DIVMSQSPSSLTVTTGEKVTMTCKSSQSLLNSGNLKNYLAWYQQKPGQPPKLLIYWASIRESGVPDRFTGSGSGTDFTLTIISVQAEDLAIYYCQNAYTFPFTLGGGTKLEIK
notes: also called murine clone 31A6
B3: 32G4-huIgG1-V8×OKT3 (anti-CLDN18.2×CD3) bispecific antibody (bispecific antibody)
heavy: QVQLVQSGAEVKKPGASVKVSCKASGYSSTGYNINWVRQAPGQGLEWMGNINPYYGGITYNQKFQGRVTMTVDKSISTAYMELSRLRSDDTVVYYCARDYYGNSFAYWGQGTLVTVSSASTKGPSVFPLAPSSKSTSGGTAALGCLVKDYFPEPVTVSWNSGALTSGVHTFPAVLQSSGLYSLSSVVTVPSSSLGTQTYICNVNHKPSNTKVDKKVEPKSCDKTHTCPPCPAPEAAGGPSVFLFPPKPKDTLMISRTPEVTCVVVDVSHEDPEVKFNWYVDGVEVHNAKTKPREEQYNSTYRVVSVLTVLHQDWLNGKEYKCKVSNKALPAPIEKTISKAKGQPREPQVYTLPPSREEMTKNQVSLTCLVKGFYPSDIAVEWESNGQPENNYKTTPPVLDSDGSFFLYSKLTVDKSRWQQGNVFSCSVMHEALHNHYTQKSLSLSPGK
light: DIQMTQSPSSLSASVGDRVTITCRSSQSLLNSGNQKNYLTWYQQKPGKAPKLLIFWASTLESGVPSRFSGSGSGTDFTLTISSLQPEDFATYYCQNNYYFPYTFGQGTKLEIKRTVAAPSVFIFPPSDEQLKSGTASVVCLLNNFYPREAKVQWKVDNALQSGNSQESVTEQDSKDSTYSLSSTLTLSKADYEKHKVYACEVTHQGLSSPVTKSFNRGECTSGGGGSGGGGSGGGGSQVQLVQSGGGVVQPGRSLRLSCKASGYTFTRYTMHWVRQAPGKGLEWIGYINPSRGYTNYNQKFKDRFTISRDNSKNTAFLQMDSLRPEDTGVYFCARYYDDHYSLDYWGQGTPVTVSSGGGGSGGGGSGGGGSGGGGSGGGGSGGGGSDIQMTQSPSSLSASVGDRVTITCSASSSVSYMNWYQQTPGKAPKRWIYDTSKLASGVPSRFSGSGSGTDYTFTISSLQPEDIATYYCQQWSSNPFTFGQGTKLQIT
B4: 32G4-huIgG1-V8 (antibody, V domains shown)
VH: QVQLVQSGAEVKKPGASVKVSCKASGYSSTGYNINWVRQAPGQGLEWMGNINPYYGGITYNQKFQGRVTMTVDKSISTAYMELSRLRSDDTVVYYCARDYYGNSFAYWGQGTLVTVSS
VL: DIQMTQSPSSLSASVGDRVTITCRSSQSLLNSGNQKNYLTWYQQKPGKAPKLLIFWASTLESGVPSRFSGSGSGTDFTLTISSLQPEDFATYYCQNNYYFPYTFGQGTKLEIKR
notes: Humanized full IgG1 antibody; also called humanized 32G4 variant V8; 32G4-V8
B5: 32G4 mouse chimeric antibody (murine VH/VL on human IgG1 constant regions) (antibody, V domains shown)
VH: EVQLQQSGPELENPGASVKIFCKASGYSSTGYNINWVKQSSGKSLEWIGNINPYYGGITYNQKFKGKATLTVDKSSSTAYVQLKSLTSEDSAVYYCARDYYGNSFAYWGQGTLVTVST
VL: DIVMTQSPSSLTVTAGEKVTMSCKSSQSLLNSGNQKNYLTWYQQNPGQPPKLLIFWASTRESGVPDRFTGSGSGTDFTLTISSVQAEDLAVYYCQNNYYFPYTFGGGTKLEIR
notes: also called murine clone 32G4; mouse 32G4 chimeric control antibody
B6: 15B10 mouse chimeric antibody (murine VH/VL on human IgG1 constant regions) (antibody, V domains shown)
VH: QVQLQQSGAELVRPGTSVKVSCKASGYAFSNYLIDWVKQRPGQGLEWIGVIHPGSGTNYNENFKGKATLTADKSSSTAYMQLSSLTSDDSAVYFCSRRWYGNSLIYWGQGTLVTVSA
VL: B5 VL with S22T, K36R, N45K, F55Y, N97D, Y99F, F100Y, Y102F, G106S, R113K
notes: also called murine clone 15B10
B7: 47D10 mouse chimeric antibody (murine VH/VL on human IgG1 constant regions) (antibody, V domains shown)
VH: QVMLVESGGGLVKPGGSLKLSCAASGFAFSSSAMSWIRQTPEKRLEWVATMTVGYIYTYYLDTVKGRFIISRDNANNTLYLQMSSLRSEDSAMYYCARQGYGNAMDYWGQGTSVTVSS
VL: B5 VL with N45K, F55Y, D66Y, Q85E, Y99I, F100Y, Y102L, G106A, I112L, R113K
notes: also called murine clone 47D10; mouse 47D10 chimeric control antibody
B8: 47D10-huIgG1-V6×OKT3 (anti-CLDN18.2×CD3) bispecific antibody (bispecific antibody)
heavy: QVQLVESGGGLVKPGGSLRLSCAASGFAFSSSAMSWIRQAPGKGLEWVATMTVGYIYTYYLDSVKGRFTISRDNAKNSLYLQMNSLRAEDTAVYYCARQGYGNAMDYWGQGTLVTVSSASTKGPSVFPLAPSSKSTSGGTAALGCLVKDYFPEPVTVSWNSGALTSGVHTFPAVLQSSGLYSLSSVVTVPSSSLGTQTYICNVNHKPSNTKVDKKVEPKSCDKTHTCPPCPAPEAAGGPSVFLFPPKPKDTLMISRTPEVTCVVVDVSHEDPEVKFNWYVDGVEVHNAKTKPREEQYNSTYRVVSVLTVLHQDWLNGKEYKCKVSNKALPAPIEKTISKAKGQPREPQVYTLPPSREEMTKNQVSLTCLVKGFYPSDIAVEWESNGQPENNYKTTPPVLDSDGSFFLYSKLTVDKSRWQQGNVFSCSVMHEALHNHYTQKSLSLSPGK
light: DIVMTQSPLSLPVTPGEPASISCRSSQSLLNSGNQKNYLTWYLQKPGQSPQLLIYWASTRESGVPDRFSGSGSGTDFTLKISRVEAEDVGVYYCQNNYIYPLTFGQGTKLEIKRTVAAPSVFIFPPSDEQLKSGTASVVCLLNNFYPREAKVQWKVDNALQSGNSQESVTEQDSKDSTYSLSSTLTLSKADYEKHKVYACEVTHQGLSSPVTKSFNRGECTSGGGGSGGGGSGGGGSQVQLVQSGGGVVQPGRSLRLSCKASGYTFTRYTMHWVRQAPGKGLEWIGYINPSRGYTNYNQKFKDRFTISRDNSKNTAFLQMDSLRPEDTGVYFCARYYDDHYSLDYWGQGTPVTVSSGGGGSGGGGSGGGGSGGGGSGGGGSGGGGSDIQMTQSPSSLSASVGDRVTITCSASSSVSYMNWYQQTPGKAPKRWIYDTSKLASGVPSRFSGSGSGTDYTFTISSLQPEDIATYYCQQWSSNPFTFGQGTKLQIT
B9: 29G4 mouse chimeric antibody (murine VH/VL on human IgG1 constant regions) (antibody, V domains shown)
VH: QVQLKESGPGLVAPSQTLSITCTVSGFSLTNYGVQWVRQPPGKGLEWLGVIWAGGNTNYNSALLSRLSISKDTSKSQVFLKMNSLKTDDTAMYYCARGGYGNSCDYWGQGTLVTVSA
VL: DIVMTQSPSSLTVTAGEKVTMNCKSSQSLLNSGNQKNYLAWYRQKPGQPPKLLIYWASTRGSGVPDRFTGSGSGTDFALTISSVQAEDLAVYYCQNDYFYPLTFGAGTKLDLK
notes: also called murine clone 29G4
B10: 47D10-huIgG1-V6 (antibody, V domains shown)
VH: QVQLVESGGGLVKPGGSLRLSCAASGFAFSSSAMSWIRQAPGKGLEWVATMTVGYIYTYYLDSVKGRFTISRDNAKNSLYLQMNSLRAEDTAVYYCARQGYGNAMDYWGQGTLVTVSS
VL: DIVMTQSPLSLPVTPGEPASISCRSSQSLLNSGNQKNYLTWYLQKPGQSPQLLIYWASTRESGVPDRFSGSGSGTDFTLKISRVEAEDVGVYYCQNNYIYPLTFGQGTKLEIKR
notes: Humanized full IgG1 antibody; also called humanized 47D10 variant V6; 47D10-V6
B11: 47D10-huIgG1-V7 (antibody, V domains shown)
VH: B10 VH
VL: DIVMTQSPGTLSLSPGERATLSCRSSQSLLNSGNQKNYLTWYQQKPGQAPRLLIYWASTRESGIPDRFSGSGSGTDFTLTISRLEPEDFAVYYCQNNYIYPLTFGQGTKLEIKR
notes: Humanized full IgG1 antibody; also called humanized 47D10 variant V7; 47D10-V7
B12: 47D10-huIgG1-V7×OKT3 (anti-CLDN18.2×CD3) bispecific antibody (bispecific antibody)
heavy: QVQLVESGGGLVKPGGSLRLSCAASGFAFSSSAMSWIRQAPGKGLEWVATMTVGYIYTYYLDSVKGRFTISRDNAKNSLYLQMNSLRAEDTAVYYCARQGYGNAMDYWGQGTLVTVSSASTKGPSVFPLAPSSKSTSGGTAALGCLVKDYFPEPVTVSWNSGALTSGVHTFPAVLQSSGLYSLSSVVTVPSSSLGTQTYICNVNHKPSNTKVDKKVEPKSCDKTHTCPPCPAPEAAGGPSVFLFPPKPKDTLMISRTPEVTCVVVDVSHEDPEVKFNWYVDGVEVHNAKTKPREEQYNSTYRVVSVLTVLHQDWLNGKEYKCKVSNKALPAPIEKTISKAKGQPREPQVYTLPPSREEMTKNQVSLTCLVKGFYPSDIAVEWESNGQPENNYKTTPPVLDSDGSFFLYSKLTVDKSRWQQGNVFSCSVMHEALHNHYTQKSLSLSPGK
light: DIVMTQSPGTLSLSPGERATLSCRSSQSLLNSGNQKNYLTWYQQKPGQAPRLLIYWASTRESGIPDRFSGSGSGTDFTLTISRLEPEDFAVYYCQNNYIYPLTFGQGTKLEIKRTVAAPSVFIFPPSDEQLKSGTASVVCLLNNFYPREAKVQWKVDNALQSGNSQESVTEQDSKDSTYSLSSTLTLSKADYEKHKVYACEVTHQGLSSPVTKSFNRGECTSGGGGSGGGGSGGGGSQVQLVQSGGGVVQPGRSLRLSCKASGYTFTRYTMHWVRQAPGKGLEWIGYINPSRGYTNYNQKFKDRFTISRDNSKNTAFLQMDSLRPEDTGVYFCARYYDDHYSLDYWGQGTPVTVSSGGGGSGGGGSGGGGSGGGGSGGGGSGGGGSDIQMTQSPSSLSASVGDRVTITCSASSSVSYMNWYQQTPGKAPKRWIYDTSKLASGVPSRFSGSGSGTDYTFTISSLQPEDIATYYCQQWSSNPFTFGQGTKLQIT

Tests used:
[1] = target: T1, human Claudin 18.2 protein (human); test: FACS cell surface binding analysis
T1 construct: Expressed on transfected cells (CHO-hCLDN18.2, HEK293-hCLDN18.2, 3T3-hCLDN18.2) from pCMV3-hCLDN18.2; also called human CLDN18.2; hCLDN18.2
T1 sequence (chain, as listed by the source limits assumed): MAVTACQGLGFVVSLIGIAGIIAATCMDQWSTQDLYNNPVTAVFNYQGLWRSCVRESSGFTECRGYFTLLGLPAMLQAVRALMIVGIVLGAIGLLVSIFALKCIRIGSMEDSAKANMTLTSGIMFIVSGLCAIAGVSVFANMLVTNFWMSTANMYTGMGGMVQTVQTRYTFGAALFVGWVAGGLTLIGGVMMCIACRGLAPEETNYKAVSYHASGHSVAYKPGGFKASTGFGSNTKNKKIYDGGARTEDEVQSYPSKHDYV

[2] = target: T1, human Claudin 18.2 protein; test: FACS on cells expressing CLDN18.2 versus cells expressing CLDN18.1 (reference: binding to CLDN18.1)
Text: FACS cell binding assays. […] Cells were fixed with 1% paraformaldehyde (PFA) prior to analysis on FACSCalibur cytometer (BD biosciences, Franklin Lakes, N.J., U.S.). Controls were cells with secondary antibody only, for which the mean fluorescent intensity (MFI) was set to 5.

[3] = target: T1, human Claudin 18.2 protein; test: cell-based or functional assay

| Binder | EC50 [1] | fold stronger binding to CLDN18.2 than to CLDN18.1 [2] | TDCC activity (T cell dependent cellular cytotoxicity; CellTiter-Glo cell viability, PBMCs as effectors, 48 hours) [3] |
| --- | --- | --- | --- |
| B1 | 129 pM |  |  |
| B2 | 10900 pM | ≥ 1000 times |  |
| B3 |  |  | 1 pM |
| B4 | 147 pM |  |  |
| B5 | 502 pM | ≥ 1000 times |  |
| B6 | 2200 pM | ≥ 1000 times |  |
| B7 | 1970 pM | ≥ 1000 times |  |
| B8 |  |  | 1 pM |
| B9 | 1260 pM | ≥ 1000 times |  |
| B10 | 220 pM |  |  |
| B11 | 361 pM |  |  |
| B12 |  |  | 1 pM |
